This note sets out measurements from patent US20120128758A1.

The target of this assay is mAb 2F5. Description: cell-based or functional assay.

QQEKNEQELLELDKWASLWN (modifications not checked) [SP62 peptide (gp41 652-671), …] registered an IC50 of 2F5 mAb against TND-669S pseudovirus after pre-absorption with 0.3 µM peptide of 0.911 mg/L.
